Square brackets hold non-standard residues; d marks the D form. Side chains are listed from the residue outwards. αMeF = C[C@](N)(Cc1ccccc1)C(=O)O; Iva = CC[C@](C)(N)C(=O)O; Oda = not defined here; Aib = CC(C)(N)C(=O)O
T1: human NPY2R (human, UniProt P49146 1-381)
T1 sequence (looked up): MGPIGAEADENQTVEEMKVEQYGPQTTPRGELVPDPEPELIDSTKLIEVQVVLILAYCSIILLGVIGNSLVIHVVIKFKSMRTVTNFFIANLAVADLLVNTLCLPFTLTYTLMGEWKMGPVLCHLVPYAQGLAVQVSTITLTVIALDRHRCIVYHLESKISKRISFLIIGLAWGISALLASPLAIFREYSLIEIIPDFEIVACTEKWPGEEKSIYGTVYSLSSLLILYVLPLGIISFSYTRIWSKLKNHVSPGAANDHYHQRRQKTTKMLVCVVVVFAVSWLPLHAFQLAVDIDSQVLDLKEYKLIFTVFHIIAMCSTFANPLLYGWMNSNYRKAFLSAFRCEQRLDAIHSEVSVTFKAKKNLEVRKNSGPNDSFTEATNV

T2: human GIPR (human, UniProt P48546 22-466)
T2 sequence (looked up): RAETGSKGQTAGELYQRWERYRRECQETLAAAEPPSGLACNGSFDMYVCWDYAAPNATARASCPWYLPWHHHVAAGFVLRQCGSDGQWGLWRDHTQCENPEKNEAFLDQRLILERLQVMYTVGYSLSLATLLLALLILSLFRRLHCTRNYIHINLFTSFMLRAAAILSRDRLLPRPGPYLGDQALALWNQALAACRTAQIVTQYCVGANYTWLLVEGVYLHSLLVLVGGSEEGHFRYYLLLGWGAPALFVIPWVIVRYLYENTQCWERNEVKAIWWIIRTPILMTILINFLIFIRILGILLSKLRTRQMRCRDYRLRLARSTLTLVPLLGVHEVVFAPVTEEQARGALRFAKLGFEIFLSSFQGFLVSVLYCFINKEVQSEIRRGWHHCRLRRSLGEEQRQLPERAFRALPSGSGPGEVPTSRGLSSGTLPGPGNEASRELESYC


Assays:
Experiment in all cases: cell-based or functional assay
human GLP-1R = human GLP-1R (human, UniProt P43220 24-463)
human NPY2R = molecular target: T1, human NPY2R
human GIPR = molecular target: T2, human GIPR

Binder	Agonist activity (EC50), Cre-luc reporter assay (human GLP-1R) [nM]	Agonist activity (EC50), Cre-luc reporter assay (human NPY2R) [nM]	Agonist activity (EC50), Cre-luc reporter assay (human GIPR) [nM]
H-Y[Aib]EGT[αMeF]TSDK([Gly-Gly-Gly-Gly-Oda])[Aib]I[Aib]LEKQRQ[Iva]EFVRHLLNK[Aib]TRQRY-NH2 (reading uncertain; also: printed as H-Tyr-Aib-Glu-Gly-Thr-αMePhe-Thr-Ser-Asp-Lys(-Gly-Gly-Gly-Gly-Oda)-Aib-Ile-Aib-Leu-Glu-Lys-Gln-Arg-Gln-Iva-Glu-Phe-Val-Arg-His-Leu-Leu-Asn-Lys-Aib-Thr-Arg-Gln-Arg-Tyr-NH2)	0.25	2.7	0.52
Me-Y[Aib]EGT[αMeF]TSDK([Gly-Gly-Gly-Gly-Pal])[Aib]I[Aib]LDKQAQ[Iva]EFVRHLLNK[Aib]TRQRY-NH2	0.043	0.03	0.038
Me-Y[Aib]EGT[αMeF]TSDK([Gly-Gly-Gly-Gly-Pal])[Aib]I[Aib]LEKQRQ[Iva]EFVRHLLNK[Aib]TRQRY-NH2	0.13	0.067	0.082
Me-Y[Aib]EGT[αMeF]TSDK([Gly-Gly-Gly-Gly-Oda])[Aib]I[Aib]LDKQAQ[Iva]EFVRHLLNK[Aib]TRQRY-NH2 (reading uncertain; also: printed as Me-Tyr-Aib-Glu-Gly-Thr-αMePhe-Thr-Ser-Asp-Lys(-Gly-Gly-Gly-Gly-Oda)-Aib-Ile-Aib-Leu-Asp-Lys-Gln-Ala-Gln-Iva-Glu-Phe-Val-Arg-His-Leu-Leu-Asn-Lys-Aib-Thr-Arg-Gln-Arg-Tyr-NH2)	0.15	3.3	0.074
H-Y[Aib]EGT[αMeF]TSDK([Gly-Gly-Gly-Gly-Oda])[Aib]I[Aib]LDKQAQ[Iva]EFVRHLLNK[Aib]TRQRY-NH2 (reading uncertain; also: printed as H-Tyr-Aib-Glu-Gly-Thr-αMePhe-Thr-Ser-Asp-Lys(-Gly-Gly-Gly-Gly-Oda)-Aib-Ile-Aib-Leu-Asp-Lys-Gln-Ala-Gln-Iva-Glu-Phe-Val-Arg-His-Leu-Leu-Asn-Lys-Aib-Thr-Arg-Gln-Arg-Tyr-NH2)	0.078	2.4	0.074
H-Y[Aib]EGT[αMeF]TSDK([Gly-Gly-Gly-Gly-Pal])[Aib]I[Aib]LEKQRQ[Iva]EFVRHLLNK[Aib]TRQRY-NH2	0.061	0.057	0.049
